Laboratory results as given in article PMC11362571, “Multistage protective anti-CelTOS monoclonal antibodies with cross-species sterile protection against malaria” (Nature Communications, 2024).

B1: monoclonal antibody 4h12 (IgG) [mouse] / P. falciparum CelTOS (3D7, PF3D7_1216600, residue F25-D182) [P. falciparum] (parent complex)
chain 1: QVQLQQSGPELVKPGASVKISCKASGYALSSSWLNWVKQRPGQGLEWIGRIFPGDGDTNYNGKFKGKATLTADKSSSTAYLQLSSLTSVDSAVYFCARGGTVVFDYWGQGTTLTVSSAKTTPPSVYPLAPGSAAQTNSMVTLGCLVKGYFPEPVTVTWNSGSLSSGVHTFPAVLQSDLYTLSSSVTVPSSTWPSETVTCNVAHPASSTKVDKKIVPRD
chain 2: DIVMTQSHKFMSTSVGDRVNITCKASQDVGIAVAWYQQRPGQSPKLLIYWASKRHTGVHDRFTGTGSGTDFTLTISTVQSEDLADYFCQQYSNSLTFGAGTTLELSRADAAPTVSIFPPSSEQLTSGGASVVCFLNNFYPKDINVKWKIDGSERQNGVLNSWTDQDSKDSTYSMSSTLTLTKDEYERHNSYACEATHKTSTSPIVKSFNR
chain 3: FRGNNGHNSSSSLYNGSQFIEQLNNSFTSAFLESQSMNKIGDDLAETISNELVSVLQKNSPTFLESSFDIKSEVKKHAKSMLKELIKVGLPSFENLVAENVKPPKVDPATYGIIVPVLTSLFNKVETAVGAKVSDEIWNYNSPDVSESEESLSDDFFD
B2: monoclonal antibody 7g7 (IgG) [mouse] / P. vivax CelTOS (Sal-1, PVX_123510, residue L36-D196) [P. vivax] (parent complex)
chain 1: EIQLQQSGPELVKPGASVKVSCKASGYSFTDYNMYWVKQSHGKSLEWIGYIDPYNGGTRYNQKFRDKATLTVDKSSSTAFMHLNSLTSEDSAVYYCARGYYYGNPLHFDVWGAGTTVTVSSAKTTPPSVYPLAPGSAAQTNSMVTLGCLVKGYFPEPVTVTWNSGSLSSGVHTFPAVLQSDLYTLSSSVTVPSSTWPSETVTCNVAHPASSTKVDKKIVPR
chain 2: QIVLTQSPAIMSASPGEKVTMTCSASSSVSYIHWYQQKSGTSPKRWIYDTSKLASGVPARFSGSGSGTSYSLTISSMEAEDAATYYCQQWISYPATFGAGTKLELKRADAAPTVSIFPPSSEQLTSGGASVVCFLNNFYPKDINVKWKIDGSERQNGVLNSWTDQDSKDSTYSMSSTLTLTKDEYERHNSYTCEATHKTSTSPIVKSFNRNEC
chain 3: LRGKSGSTASSSLEGGSEFSERIGNSLSSFLSESASLEVIGNELADNIANEIVSSLQKDSASFLQSGFDVKTQLKATAKKVLVEALKAALEPTEKIVASTIKPPRVSEDAYFLLGPVVKTLFNKVEDVLHKPIPDTIWEYESKGSLEEEEAEDEFSDELLD

Variants of: B1
Experiment: ELISA; parent: 100; read off a plot

Point of comparison: chain 3 V129A, chain 3 G130A, percent of parent ~100%. Against it:
- chain 3 L32A, chain 3 E33A, chain 3 S34A — lower, ~91%
- chain 3 K132A, chain 3 V133A, chain 3 S134A — lower, ~99%
- chain 3 W138A, chain 3 N139A, chain 3 Y140A — lower, ~93%
- chain 3 G16A, chain 3 S17A, chain 3 Q18A — lower, ~93%
- chain 3 Y14A, chain 3 N15A, chain 3 G16A — lower, ~96%
- chain 3 I70A, chain 3 K71A, chain 3 S72A, chain 3 E73A — lower, ~75%
- chain 3 S29A, chain 3 F31A — lower, ~92%
- chain 3 P108A — lower, ~96%
- chain 3 D135A, chain 3 E136A, chain 3 I137A — lower, ~98%
- chain 3 S60A, chain 3 P61A, chain 3 T62A — lower, ~27%
- chain 3 Q57A, chain 3 K58A, chain 3 N59A — lower, ~1%
- chain 3 S67A, chain 3 F68A, chain 3 D69A — lower, ~94%
- chain 3 G112A, chain 3 I113A, chain 3 I114A — lower, ~98%
- chain 3 F63A, chain 3 L64A, chain 3 E65A — lower, ~0%
- chain 3 Q35A, chain 3 S36A, chain 3 M37A — the same, ~100%

Variants of: B2
Experiment: ELISA; parent: 100; read off a plot

Point of comparison: chain 3 W138A, chain 3 E139A, chain 3 Y140A, percent of parent ~1%. Against it:
- chain 3 F112A, chain 3 L113A, chain 3 L114A — higher, ~50%
- chain 3 G115A, chain 3 P116A, chain 3 V117A — higher, ~94%
- chain 3 L129A, chain 3 H130A, chain 3 K131A — the same, ~1%
- chain 3 G67A, chain 3 F68A, chain 3 D69A — higher, ~99%
- chain 3 K102A, chain 3 P103A, chain 3 P104A — higher, ~86%
- chain 3 E108A, chain 3 D109A — higher, ~68%
- chain 3 S36A, chain 3 L37A — higher, ~93%
- chain 3 P132A, chain 3 I133A, chain 3 P134A — the same, ~1%
- chain 3 S32A, chain 3 E33A, chain 3 S34A — higher, ~83%
- chain 3 E14A, chain 3 G15A, chain 3 G16A — higher, ~100%
- chain 3 S60A, chain 3 S62A — higher, ~100%
- chain 3 F63A, chain 3 L64A, chain 3 Q65A — higher, ~100%
- chain 3 G16A, chain 3 S17A, chain 3 E18A — higher, ~98%
- chain 3 Q57A, chain 3 K58A, chain 3 D59A — higher, ~98%
- chain 3 R105A, chain 3 V106A, chain 3 S107A — higher, ~77%
- chain 3 S29A, chain 3 F30A, chain 3 L31A — higher, ~100%
